# Key:
# [1] = test system: Indicator molecule of Example 4 with 2 MMP9 cleavage sites (ALP first capture region, terminal biotin via PEG)
# [2] = test system: Indicator molecule of Example 5 with 2 MMP9 cleavage sites (terminal biotin, DNP, FITC)
# [3] = test system: Indicator molecule of Example 5 with 3 MMP9 cleavage sites (terminal biotin, DNP, FITC)
# [4] = test system: Indicator molecule of Example 5 with 4 MMP9 cleavage sites (terminal biotin, DNP, FITC)
# [5] = test system: Indicator molecule of Example 4 with 3 MMP9 cleavage sites (ALP first capture region, terminal biotin via PEG)
# [6] = test system: Indicator molecule of Example 2 (peptide with one MMP9 cleavage site, first capture region ALP, terminal biotin via polyethylene glycol spacer)
# [7] = test system: Indicator molecule of Example 3 (synthetic peptide with MMP-9 sequence, HNE sequence, DNP, fluorescent label and terminal biotin via PEG)
# [8] = test system: Indicator molecule of Example 4 with 5 MMP9 cleavage sites (ALP first capture region, terminal biotin via PEG)
# [9] = test system: Indicator molecule of Example 4 with 7 MMP9 cleavage sites (ALP first capture region, terminal biotin via PEG)
# Matrix Metalloprotease-9 (MMP-9) (Mologic), sequence (chain, as listed by the source): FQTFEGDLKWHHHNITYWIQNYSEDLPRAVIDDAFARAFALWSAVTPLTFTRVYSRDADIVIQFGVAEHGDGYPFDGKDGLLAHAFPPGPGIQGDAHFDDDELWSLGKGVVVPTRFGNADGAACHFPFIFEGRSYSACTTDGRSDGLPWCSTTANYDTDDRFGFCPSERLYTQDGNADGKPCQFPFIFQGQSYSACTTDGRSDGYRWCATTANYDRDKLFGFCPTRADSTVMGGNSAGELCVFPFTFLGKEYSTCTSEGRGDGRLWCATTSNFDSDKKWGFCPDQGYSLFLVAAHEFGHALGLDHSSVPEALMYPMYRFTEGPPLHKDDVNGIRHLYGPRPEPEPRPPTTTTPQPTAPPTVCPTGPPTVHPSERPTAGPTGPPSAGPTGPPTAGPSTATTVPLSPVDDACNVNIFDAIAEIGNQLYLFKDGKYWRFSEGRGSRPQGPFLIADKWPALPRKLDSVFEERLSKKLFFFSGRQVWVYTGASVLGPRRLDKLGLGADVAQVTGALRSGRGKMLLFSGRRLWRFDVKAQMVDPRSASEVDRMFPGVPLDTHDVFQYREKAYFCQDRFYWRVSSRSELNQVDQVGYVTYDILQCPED
substance,measurement,setting,value
Matrix Metalloprotease-9 (MMP-9) (Mologic),test line signal at 31.25 ng/ml MMP9,[1],0.68 reader units
same,test line signal at 62.5 ng/ml MMP9,[1],0.32 reader units
same,test line signal at 125 ng/ml MMP9,[1],0.57 reader units
same,test line signal at 250 ng/ml MMP9,[1],1.99 reader units
same,test line signal at 500 ng/ml MMP9,[1],3.48 reader units
same,test line signal at 1000 ng/ml MMP9,[1],12 reader units
same,test line signal at 2000 ng/ml MMP9,[1],11.8 reader units
same,cut-off of the assay,[2],The cut-off with all indicator molecules was below <31.25 ng/ml
same,test line signal at 31.25 ng/ml MMP9,[2],1.36 reader units
same,test line signal at 62.5 ng/ml MMP9,[2],1.78 reader units
same,test line signal at 125 ng/ml MMP9,[2],3.46 reader units
same,test line signal at 250 ng/ml MMP9,[2],5.44 reader units
same,test line signal at 500 ng/ml MMP9,[2],6.87 reader units
same,test line signal at 1000 ng/ml MMP9,[2],5.48 reader units
same,test line signal at 2000 ng/ml MMP9,[2],12.8 reader units
same,cut-off of the assay,[3],The cut-off with all indicator molecules was below <31.25 ng/ml
same,test line signal at 31.25 ng/ml MMP9,[3],1.45 reader units
same,test line signal at 62.5 ng/ml MMP9,[3],2.56 reader units
same,test line signal at 125 ng/ml MMP9,[3],3.1 reader units
same,test line signal at 250 ng/ml MMP9,[3],5.58 reader units
same,test line signal at 500 ng/ml MMP9,[3],9.04 reader units
same,test line signal at 1000 ng/ml MMP9,[3],11.6 reader units
same,test line signal at 2000 ng/ml MMP9,[3],17.9 reader units
same,cut-off of the assay,[4],The cut-off with all indicator molecules was below <31.25 ng/ml
same,test line signal at 31.25 ng/ml MMP9,[4],2.69 reader units
same,test line signal at 62.5 ng/ml MMP9,[4],2.94 reader units
same,test line signal at 125 ng/ml MMP9,[4],5.63 reader units
same,test line signal at 250 ng/ml MMP9,[4],10.1 reader units
same,test line signal at 500 ng/ml MMP9,[4],11.2 reader units
same,test line signal at 1000 ng/ml MMP9,[4],16.3 reader units
same,test line signal at 2000 ng/ml MMP9,[4],16.2 reader units
same,test line signal at 31.25 ng/ml MMP9,[5],0 reader units
same,test line signal at 62.5 ng/ml MMP9,[5],0 reader units
same,test line signal at 125 ng/ml MMP9,[5],0 reader units
same,test line signal at 250 ng/ml MMP9,[5],0.92 reader units
same,test line signal at 500 ng/ml MMP9,[5],3.84 reader units
same,test line signal at 1000 ng/ml MMP9,[5],7.57 reader units
same,test line signal at 2000 ng/ml MMP9,[5],10.5 reader units
same,detectable limit of the lateral flow cleavage assay,[6],approximately 250-500 ng/ml
same,sensitivity of the assay,[6],"250-500 ng/ml MMP9, seen with an indicator molecule having 1 cleavage site"
same,test line signal at 31.25 ng/ml MMP9,[6],0 reader units
same,test line signal at 62.5 ng/ml MMP9,[6],0 reader units
same,test line signal at 125 ng/ml MMP9,[6],0 reader units
same,test line signal at 250 ng/ml MMP9,[6],0 reader units
same,test line signal at 500 ng/ml MMP9,[6],1.93 reader units
same,test line signal at 1000 ng/ml MMP9,[6],4.52 reader units
same,test line signal at 2000 ng/ml MMP9,[6],8 reader units
same,cut-off of the assay,[7],The cut-off with all indicator molecules was below <31.25 ng/ml
same,detectable limit of the lateral flow cleavage assay,[7],approximately 125-250 ng/ml
same,test line signal at 31.25 ng/ml MMP9,[7],1.37 reader units
same,test line signal at 62.5 ng/ml MMP9,[7],1.28 reader units
same,test line signal at 125 ng/ml MMP9,[7],2.01 reader units
same,test line signal at 250 ng/ml MMP9,[7],3.34 reader units
same,test line signal at 500 ng/ml MMP9,[7],3.73 reader units
same,test line signal at 1000 ng/ml MMP9,[7],4.33 reader units
same,test line signal at 2000 ng/ml MMP9,[7],8.7 reader units
same,test line signal at 31.25 ng/ml MMP9,[8],1.04 reader units
same,test line signal at 62.5 ng/ml MMP9,[8],1.36 reader units
same,test line signal at 125 ng/ml MMP9,[8],2.14 reader units
same,test line signal at 250 ng/ml MMP9,[8],5.01 reader units
same,test line signal at 500 ng/ml MMP9,[8],9.93 reader units
same,test line signal at 1000 ng/ml MMP9,[8],16.8 reader units
same,test line signal at 2000 ng/ml MMP9,[8],20.5 reader units
same,sensitivity of the assay,[9],<31.25 ng/ml for an indicator molecule having 7 cleavage sites
same,test line signal at 31.25 ng/ml MMP9,[9],2.27 reader units
same,test line signal at 62.5 ng/ml MMP9,[9],2.81 reader units
same,test line signal at 125 ng/ml MMP9,[9],3.25 reader units
same,test line signal at 250 ng/ml MMP9,[9],6.19 reader units
same,test line signal at 500 ng/ml MMP9,[9],9.31 reader units
same,test line signal at 1000 ng/ml MMP9,[9],21.3 reader units
same,test line signal at 2000 ng/ml MMP9,[9],25.3 reader units

# Reference: patent publication US20150160219
